T1: Nova-1 KH2 (UniProt Q9JKN6 171-237)
T1 sequence: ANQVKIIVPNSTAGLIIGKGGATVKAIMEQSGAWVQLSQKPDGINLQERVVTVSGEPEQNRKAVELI


Legend:
[1] = molecular target: Nova-1 KH2 domain (individual domain); test: AUC
[2] = molecular target: Nova-1 KH2 domain (individual domain); test: SEC
[3] = molecular target: T1, Nova-1 KH2; test: NMR

Nova-1 KH2 domain (individual domain) (domain or fragment), sequence (P51513 44-493): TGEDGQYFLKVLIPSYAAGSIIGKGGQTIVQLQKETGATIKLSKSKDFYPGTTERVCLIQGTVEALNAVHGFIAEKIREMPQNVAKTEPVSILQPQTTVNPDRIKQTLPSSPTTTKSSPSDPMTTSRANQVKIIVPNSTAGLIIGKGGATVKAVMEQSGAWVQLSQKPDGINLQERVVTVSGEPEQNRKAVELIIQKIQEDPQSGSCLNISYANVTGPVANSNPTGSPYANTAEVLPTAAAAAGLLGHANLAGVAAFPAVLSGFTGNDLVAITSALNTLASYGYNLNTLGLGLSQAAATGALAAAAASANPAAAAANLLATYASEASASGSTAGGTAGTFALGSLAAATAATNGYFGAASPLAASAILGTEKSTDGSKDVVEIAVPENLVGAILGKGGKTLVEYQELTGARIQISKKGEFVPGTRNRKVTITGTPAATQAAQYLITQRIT

Row | Molecule | stoichiometry N [1] | stoichiometry N [2] | binding result [3]
1 | Nova-1 KH2 domain (individual domain) (domain or fragment) | 2 | 2 | 
2 | UCAC (ssRNA) [UCAC tetranucleotide] |  |  | binds
